{"source": "patent US20110151454", "target": "HA-SKP2 phosphorylated in vitro by AKT (32P-SKP2) (UniProt Q13309)", "sequence (Q13309 whole entry, looked up)": "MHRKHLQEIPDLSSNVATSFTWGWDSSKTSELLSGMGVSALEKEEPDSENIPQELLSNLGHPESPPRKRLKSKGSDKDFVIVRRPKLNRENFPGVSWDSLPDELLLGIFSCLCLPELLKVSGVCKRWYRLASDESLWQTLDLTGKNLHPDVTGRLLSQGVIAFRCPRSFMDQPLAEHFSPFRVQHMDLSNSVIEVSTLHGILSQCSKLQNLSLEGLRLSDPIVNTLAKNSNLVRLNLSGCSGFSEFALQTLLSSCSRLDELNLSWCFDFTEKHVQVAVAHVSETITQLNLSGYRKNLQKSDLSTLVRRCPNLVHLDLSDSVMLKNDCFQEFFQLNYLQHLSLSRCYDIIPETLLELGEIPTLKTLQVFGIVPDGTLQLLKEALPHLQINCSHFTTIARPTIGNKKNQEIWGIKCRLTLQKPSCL", "data": [{"substance": "flag-PTEN", "values": [{"measurement": "removal of 32P from AKT-phosphorylated SKP2", "result": "neither PTEN nor PPM1H exhibited any evidence of phosphatase activity on SKP2"}]}]}
